In patent US20030064916A1 (Scripps Research, published 2003):

B1: hu-wt-p53 69-79 (peptide)
peptide: AAPPVAPAPAA
B2: hu-wt-p53 146-155 (peptide)
peptide: WVDSTPPPGT
B3: hu-wt-p53 255-264 (peptide)
peptide: ITLEDSSGNL
B4: hu-wt-p53 322-330 (peptide)
peptide: PLDGEYFTL
notes: also called hu-p53.322-330
B5: hu-wt-p53 25-33 (peptide)
peptide: LLPENNVLS
B6: hu-wt-p53 122-130 (peptide)
peptide: VTCTYSPAL
B7: hu-wt-p53 69-78 (peptide)
peptide: AAPPVAPAPA
B8: hu-wt-p53 43-52 (peptide)
peptide: LMLSPDDIEQ
B9: hu-wt-p53 136-144 (peptide)
peptide: QLAKTCPVQ
B10: hu-wt-p53 263-272 (peptide)
peptide: NLLGRNSFEV
B11: hu-wt-p53 78-86 (peptide)
peptide: AAPTPAAPA
B12: hu-wt-p53 187-195 (peptide)
peptide: GLAPPQHLI
B13: hu-wt-p53 161-169 (peptide)
peptide: AIYKQSQHM
B14: hu-wt-p53 42-50 (peptide)
peptide: DLMLSPDDI
B15: hu-wt-p53 69-76 (peptide)
peptide: AAPPVAPA
B16: hu-wt-p53 31-40 (peptide)
peptide: VLSPLPSQAM
B17: hu-wt-p53 117-125 (peptide)
peptide: GTAKSVTCT
B18: hu-wt-p53 31-39 (peptide)
peptide: VLSPLPSQA
B19: p53.149-157 (peptide)
peptide: STPPPGTRV
B20: p53.65-73 (peptide)
peptide: RMPEAAPPV
notes: also called hu-wt-p53 65-73; hu-p53.65-73
B21: hu-wt-p53 210-218 (peptide)
peptide: NTFRHSVVV
B22: p53.25-35 (peptide)
peptide: LLPENNVLSPL
notes: also called hu-wt-p53 25-35; hu-p53.25-35
B23: hu-wt-p53 339-247 (peptide)
peptide: EMFRELNEA
B24: mur-wt-p53 261-269 (peptide)
peptide: LLGRDSFEV
notes: also called mur-p53.261-269
B25: hu-wt-p53 73-81 (peptide)
peptide: VAPAPAAPT
B26: hu-wt-p53 110-119 (peptide)
peptide: RLGILHSGTA

target: HLA-A2.1 (human, UniProt A*02:01); assay: competition on EA2 cells: test peptide (100 mM [sic]) vs M1 58-66 (1 mM [sic]); % inhibition of CTL clone 12 lysis, E:T 0.3:1

| Binder | % inhibition of A2.1-binding of M1 (58-66) [%] |
| --- | --- |
| B1 | 4 |
| B2 | 10 |
| B3 | 24 |
| B4 | 24 |
| B5 | 42 |
| B6 | 12 |
| B7 | 41 |
| B8 | 25 |
| B9 | 15 |
| B10 | 50 |
| B11 | 51 |
| B12 | 62 |
| B13 | 12 |
| B14 | 19 |
| B15 | 46 |
| B16 | 23 |
| B17 | 12 |
| B18 | 38 |
| B19 | 29 |
| B20 | 62 |
| B21 | 43 |
| B22 | 65 |
| B23 | 12 |
| B24 | 75 |
| B25 | 12 |
| B26 | 10 |
